For this assay, the target named is T1, integrin α4β1 (human, UniProt P13612 34-1032; P05556 21-798).
T1 construct: whole, on cells; Present on human PBMNC isolated from blood and on HUVEC; also called α4β1 integrin; CD49d (α4β1 integrin)
Nature of the assay: capture of PBMNC on immobilised H2R5 against blocking antibody and heparin-only control.

T1 sequence (P13612 34-1032, chain 1 of 2): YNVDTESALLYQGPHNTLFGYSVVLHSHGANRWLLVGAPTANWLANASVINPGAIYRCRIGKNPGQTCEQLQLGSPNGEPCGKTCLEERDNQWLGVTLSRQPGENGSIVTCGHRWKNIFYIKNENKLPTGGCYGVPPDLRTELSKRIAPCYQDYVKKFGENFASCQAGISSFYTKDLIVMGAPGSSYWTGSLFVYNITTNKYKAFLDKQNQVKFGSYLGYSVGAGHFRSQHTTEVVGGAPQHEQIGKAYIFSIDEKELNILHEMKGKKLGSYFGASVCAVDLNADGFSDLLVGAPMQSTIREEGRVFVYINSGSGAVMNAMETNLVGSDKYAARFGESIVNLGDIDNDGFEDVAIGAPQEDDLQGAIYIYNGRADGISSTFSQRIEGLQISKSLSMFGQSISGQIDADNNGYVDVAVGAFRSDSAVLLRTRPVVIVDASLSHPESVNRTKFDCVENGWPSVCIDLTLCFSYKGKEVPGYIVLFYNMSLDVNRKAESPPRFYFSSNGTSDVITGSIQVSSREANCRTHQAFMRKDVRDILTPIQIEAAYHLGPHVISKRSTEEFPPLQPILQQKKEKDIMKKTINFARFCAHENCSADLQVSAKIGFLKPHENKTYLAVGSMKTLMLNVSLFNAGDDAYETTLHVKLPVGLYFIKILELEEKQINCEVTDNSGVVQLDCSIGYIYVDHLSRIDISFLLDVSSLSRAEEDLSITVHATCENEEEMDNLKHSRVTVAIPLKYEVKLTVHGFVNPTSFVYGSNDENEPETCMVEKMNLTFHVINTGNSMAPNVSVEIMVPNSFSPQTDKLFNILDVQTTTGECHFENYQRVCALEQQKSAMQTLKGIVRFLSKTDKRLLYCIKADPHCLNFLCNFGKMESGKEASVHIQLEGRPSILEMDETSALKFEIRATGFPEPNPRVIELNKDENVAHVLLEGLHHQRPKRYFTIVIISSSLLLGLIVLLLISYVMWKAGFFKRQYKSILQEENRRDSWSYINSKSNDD
T1 sequence (P05556 21-798, chain 2 of 2): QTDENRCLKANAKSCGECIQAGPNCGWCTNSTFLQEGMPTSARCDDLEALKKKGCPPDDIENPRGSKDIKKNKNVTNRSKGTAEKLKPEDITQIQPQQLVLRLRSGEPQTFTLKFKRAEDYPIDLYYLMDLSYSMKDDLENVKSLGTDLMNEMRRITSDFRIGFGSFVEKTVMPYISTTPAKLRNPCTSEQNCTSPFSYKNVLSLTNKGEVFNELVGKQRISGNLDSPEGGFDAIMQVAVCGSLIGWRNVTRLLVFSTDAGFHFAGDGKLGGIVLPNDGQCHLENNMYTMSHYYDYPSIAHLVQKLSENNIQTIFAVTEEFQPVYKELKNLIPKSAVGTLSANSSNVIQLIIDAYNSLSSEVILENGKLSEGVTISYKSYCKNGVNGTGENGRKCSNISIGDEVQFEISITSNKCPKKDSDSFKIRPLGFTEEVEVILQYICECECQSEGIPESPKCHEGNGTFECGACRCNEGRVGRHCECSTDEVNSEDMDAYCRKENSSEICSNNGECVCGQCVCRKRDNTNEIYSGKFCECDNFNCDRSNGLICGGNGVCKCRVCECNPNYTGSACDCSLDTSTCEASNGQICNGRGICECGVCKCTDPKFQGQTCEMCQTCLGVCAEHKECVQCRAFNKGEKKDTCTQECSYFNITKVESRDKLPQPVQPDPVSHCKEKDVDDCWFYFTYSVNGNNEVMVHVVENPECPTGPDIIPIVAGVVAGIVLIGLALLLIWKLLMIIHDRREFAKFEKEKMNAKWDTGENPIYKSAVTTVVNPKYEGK

B1: H2R5 fusion protein, H2-(GGGS-…)5 (designed binder)
chain: MGSSHHHHHHSSGLVPRGSHMASMTGGQQMGRGSAIPAPTDLKFTQGTPTSLSAQWTPPNVQLTGYRVRVTPKEKTGPMKEINLAPDSSSVVVSGLMVATKYEVSVYALKDTLTSRPAQGVVTTLENVSPPRRARVTDATETTITISWRTKTETITGFQVDAVPANGQTPIQRTIKPDVRSYTITGLQPGTDYKIYLYTLNDNARSSPVVIDASTAIDAPSNLRFLATTPNSLLVSWQPPRARITGYIIKYEKPGSPPREVVPRPRPGVTEATITGLEPGTEYTIYVIALKNNQKSEPLIGHKLGGGGSHIPREDVDYHGGGGSHIPREDVDYHGGGGSHIPREDVDYHGGGGSHIPREDVDYHGGGGSHIPREDVDYHLEHHHHHH
notes: no residue limits are stated; also called fusion peptide (H2R5); His tagged fusion protein
On to B1, for which the binding result is recorded as “binds”.

Values taken from patent publication US20260097149A1 (RESEARCH FOUNDATION FOR THE STATE UNIVERSITY OF NEW YORK, published 2026).
